Target: HER2 (UniProt P04626)
Assay: SPR

## 4D5 Fab modified to contain Q39E in VH, Q38K in VL, S183K in the CH1, and V133E in the CL
  Kd: 0.75 nM

Reference: patent publication US20220409725A1
